T1: AqpZ, P60844
T1 chain: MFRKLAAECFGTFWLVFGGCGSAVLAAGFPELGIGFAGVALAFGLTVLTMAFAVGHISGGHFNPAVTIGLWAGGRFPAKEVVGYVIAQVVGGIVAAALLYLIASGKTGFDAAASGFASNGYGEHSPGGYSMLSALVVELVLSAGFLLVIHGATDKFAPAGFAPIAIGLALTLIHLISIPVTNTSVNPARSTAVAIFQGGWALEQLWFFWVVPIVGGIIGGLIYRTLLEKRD

B1: AmtB (natural protein)
chain: VADKADNAFMMICTALVLFMTIPGIALFYGGLIRGKNVLSMLTQVTVTFALVCILWVVYGYSLAFGEGNNFFGNINWLMLKNIELTAVMGSIYQYIHVAFQGSFACITVGLIVGALAERIRFSAVLIFVVVWLTLSYIPIAHMVWGGGLLASHGALDFAGGTVVHINAAIAGLVGAYLIGKRVGFGKEAFKPHNLPMVFTGTAILYIGWFGFNAGSAGTANEIAALAFVNTVVATAAAILGWIFGEWALRGKPSLLGACSGAIAGLVGVTPACGYIGVGGALIIGVVAGLAGLWGVTMLKRLLRVDDPCDVFGVHGVCGIVGCIMTGIFAASSLGGVGFAEGVTMGHQLLVQLESIAITIVWSGVVAFIGYKLADLTVGLRVPEEQEREGLDVNSHGENAYNA
B2: AqpZ, P60844 1-231 (natural protein)
chain: T1 chain

Columns and labels:
[1] = biological target: the molecule itself; experiment: native MS
[2] = biological target: T1, AqpZ, P60844; experiment: native MS; conditions: remark: other sources report otherwise

| Binder | stoichiometry N [1] | stoichiometry N [2] |
| --- | --- | --- |
| B1 | 3 |  |
| B2 |  | 4 |

Source: PMC6475481 (Journal of the American Chemical Society, 2019)
